Values quoted from earlier work, collected in paper PMC4253632.

Target: Syntaxin 4 (Homo sapiens) (UniProt Q12846)
Sequence of UniProt Q12846 (Q12846 whole entry): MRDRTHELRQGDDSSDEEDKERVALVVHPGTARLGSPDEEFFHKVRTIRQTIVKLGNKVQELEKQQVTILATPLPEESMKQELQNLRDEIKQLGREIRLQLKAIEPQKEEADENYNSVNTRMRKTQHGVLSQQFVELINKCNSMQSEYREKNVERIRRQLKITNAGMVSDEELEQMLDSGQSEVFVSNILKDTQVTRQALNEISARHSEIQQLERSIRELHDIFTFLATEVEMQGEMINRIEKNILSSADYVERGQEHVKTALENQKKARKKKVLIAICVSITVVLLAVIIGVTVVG

Munc18c (from UniProt O00186)
Kd: 0.03 µM
